Measured values as given in article PMC4596688 (2015).
Values belong to the binder of their own block, whether it stands above or below them. Ends that are not written are not given here. * marks the point of attachment. FITC = O=C1OC2(c3ccc(O)cc3Oc3cc(O)ccc32)c2ccc(NC(=S)*)cc21

What was measured:
[1] = biological target: T1, Full-length human CRM1 (HsCRM1) (human, UniProt O14980 1-1071); assay: MST; direct titration, left panel
[2] = biological target: T1, Full-length human CRM1 (HsCRM1); assay: MST; direct titration, right panel
[3] = biological target: T1, Full-length human CRM1 (HsCRM1); assay: MST; direct titration, middle panel
[4] = biological target: T1, Full-length human CRM1 (HsCRM1); assay: MST; competition with FITC-PKI^NES

T1 sequence (O14980 whole entry): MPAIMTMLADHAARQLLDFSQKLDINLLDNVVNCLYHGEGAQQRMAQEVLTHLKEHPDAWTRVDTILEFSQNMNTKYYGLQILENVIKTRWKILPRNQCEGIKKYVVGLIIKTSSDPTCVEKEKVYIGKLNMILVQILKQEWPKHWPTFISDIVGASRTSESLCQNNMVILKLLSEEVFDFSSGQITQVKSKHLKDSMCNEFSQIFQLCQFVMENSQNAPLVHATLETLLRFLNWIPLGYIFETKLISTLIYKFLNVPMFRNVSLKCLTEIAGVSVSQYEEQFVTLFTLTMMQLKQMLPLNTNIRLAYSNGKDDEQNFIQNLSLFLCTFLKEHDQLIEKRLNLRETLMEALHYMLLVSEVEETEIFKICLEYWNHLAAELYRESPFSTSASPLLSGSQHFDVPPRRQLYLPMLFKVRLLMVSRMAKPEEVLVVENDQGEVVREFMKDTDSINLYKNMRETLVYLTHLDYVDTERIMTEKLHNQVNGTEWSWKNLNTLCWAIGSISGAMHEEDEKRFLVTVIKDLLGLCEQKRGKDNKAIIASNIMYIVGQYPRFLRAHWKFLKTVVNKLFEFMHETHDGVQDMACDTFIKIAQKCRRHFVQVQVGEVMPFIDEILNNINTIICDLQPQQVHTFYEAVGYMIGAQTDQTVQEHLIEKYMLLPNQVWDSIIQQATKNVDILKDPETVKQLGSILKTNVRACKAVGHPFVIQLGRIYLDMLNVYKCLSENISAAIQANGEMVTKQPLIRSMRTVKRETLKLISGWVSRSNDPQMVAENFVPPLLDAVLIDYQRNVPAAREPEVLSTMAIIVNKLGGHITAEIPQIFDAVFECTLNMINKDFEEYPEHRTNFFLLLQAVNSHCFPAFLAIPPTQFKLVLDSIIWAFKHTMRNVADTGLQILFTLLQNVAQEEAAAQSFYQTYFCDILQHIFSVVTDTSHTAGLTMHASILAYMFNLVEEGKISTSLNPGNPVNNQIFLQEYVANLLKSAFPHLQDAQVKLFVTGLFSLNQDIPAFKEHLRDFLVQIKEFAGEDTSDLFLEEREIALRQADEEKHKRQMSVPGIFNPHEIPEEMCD

Kd [1]: 37 nM
Kd [2]: 44 nM
Kd [3]: 30 nM
B1: FITC-PKI^NES peptide (FITC-SGNSNELALKLAGLDINKT) (peptide)
peptide: {FITC}-SGNSNELALKLAGLDINKT

Kd [4]: 36 nM
B2: MBP-PKI^NES (peptide)
chain: SNELALKLAGLDI

Kd [4]: 12000 nM
B3: MBP-SNUPN^NES (peptide)
chain: MEELSQALASSFSVSQ
